± gives the standard error. Fewer inactive variants are shown than the library holds.
B1: glmS ribozyme (parent)
chain: AUAAAAGCGCCAGAACUACAGAAAUGUAGUUGACGAGGAGGAGGUUUAUCGAAUUUUCGGCGGAUGCCUCCAAA

Assays:
Conditions in all cases: with glucosamine-6-phosphate
glucosamine-6-phosphate [1] = variants of: B1; test: self-cleavage kobs at 160 uM GlcN6P; higher = faster cleavage; RNA array
How it was run: (§1)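 E. coli RNA polymerase transcribed barcoded ribozyme variants in situ on sequenced MiSeq chips, which were tracked via a hybridised Cy3 probe at 37 °C. Tiles were imaged over ~14 h after glucosamine-6-phosphate (40 μM to 10 mM) in HEPES/KCl/Mg(OAc)2 buffer was flowed in. Normalised per-tile medians were fit to one- or two-exponential decays for kobs, and kcat and KM came from weighted Michaelis–Menten fits.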

glucosamine-6-phosphate [2] = variants of: B1; test: self-cleavage kobs at 640 uM GlcN6P; higher = faster cleavage; RNA array
How it was run: as §1

glucosamine-6-phosphate [3] = variants of: B1; test: self-cleavage kobs at 2500 uM GlcN6P; higher = faster cleavage; RNA array
How it was run: as §1

glucosamine-6-phosphate [4] = variants of: B1; test: self-cleavage kobs at 10000 uM GlcN6P; higher = faster cleavage; RNA array
How it was run: as §1

## AUAAAGGCUCCACAACUACAGAAAUGUAGUUGAAGAGGAGGAGGUUUAUCGAAUUUUCGGCGGAUGCCUCCAAA
glucosamine-6-phosphate [1]
  self-cleavage kobs at 160 uM GlcN6P: < 1e-05 s⁻¹
glucosamine-6-phosphate [2]
  self-cleavage kobs at 640 uM GlcN6P: < 1e-05 s⁻¹
glucosamine-6-phosphate [3]
  self-cleavage kobs at 2500 uM GlcN6P: < 1e-05 s⁻¹

## AUAAAAGCGCCAGAACUACAGAAAUGUAGUUGUCGAGGAGUAGGUUUAUCGUAUUUUCGGCGGAUGCCUCCAAA
glucosamine-6-phosphate [1]
  self-cleavage kobs at 160 uM GlcN6P: < 1e-05 s⁻¹
glucosamine-6-phosphate [2]
  self-cleavage kobs at 640 uM GlcN6P: < 1e-05 s⁻¹
glucosamine-6-phosphate [3]
  self-cleavage kobs at 2500 uM GlcN6P: < 1e-05 s⁻¹

## AUAAAAGCGCCAGAACUACAGAAAUGUAGUUGACGACGAGGAGGUUCAUCGUAUUUUCGGCGGAUGCCUCCAAA
glucosamine-6-phosphate [1]
  self-cleavage kobs at 160 uM GlcN6P: < 1e-05 s⁻¹

## AUAAAAGCGCCAGAACUACAGAAAUGUAGUAGGUGAGGAGGAGGUUUAUCGAAUUUUCCGCGGAUGCCUCCAAA
glucosamine-6-phosphate [1]
  self-cleavage kobs at 160 uM GlcN6P: < 1e-05 s⁻¹
glucosamine-6-phosphate [2]
  self-cleavage kobs at 640 uM GlcN6P: < 1e-05 s⁻¹

## AUAAAAGCGCCCGAACUACAGAAAUGUAGUUGACGAGGAGGAGGUUUAUCGAAUUUUCAGCGCAUGCCUCCAAA
glucosamine-6-phosphate [1]
  self-cleavage kobs at 160 uM GlcN6P: < 1e-05 s⁻¹
glucosamine-6-phosphate [2]
  self-cleavage kobs at 640 uM GlcN6P: < 1e-05 s⁻¹

## AUAAAAGCGCCAGAACUACAGAAAUGUAGUUGACGAGGAGGAGGUUUAUCGAAUUUUCGAUGAAUGCCUCCAAA
glucosamine-6-phosphate [1]
  self-cleavage kobs at 160 uM GlcN6P: < 1e-05 s⁻¹
glucosamine-6-phosphate [3]
  self-cleavage kobs at 2500 uM GlcN6P: < 1e-05 s⁻¹

## AUAAAAGCGCCAGAACUACAGAAAUGUAGUUGACGCGGGGGAGGUUUAUCGAAUUUUCGGCGGAUGCUUCCAAA
glucosamine-6-phosphate [1]
  self-cleavage kobs at 160 uM GlcN6P: < 1e-05 s⁻¹
glucosamine-6-phosphate [2]
  self-cleavage kobs at 640 uM GlcN6P: < 1e-05 s⁻¹

## AUAAAAGCGCCAGAACUACAGAAAUGUAGUUGAUGAGGAGGAGGUUUAUCGAAUUGUCGGCGGAUGCCUCCAAA
glucosamine-6-phosphate [1]
  self-cleavage kobs at 160 uM GlcN6P: < 1e-05 s⁻¹
glucosamine-6-phosphate [3]
  self-cleavage kobs at 2500 uM GlcN6P: < 1e-05 s⁻¹

## AUAAAAGCGCCAGAACUACAGAAAUGUAGUUGACAAGGAGCAGGUUUAUCGAAUUUUCGGCGGAUGCCACCAAA
glucosamine-6-phosphate [1]
  self-cleavage kobs at 160 uM GlcN6P: < 1e-05 s⁻¹
glucosamine-6-phosphate [2]
  self-cleavage kobs at 640 uM GlcN6P: < 1e-05 s⁻¹
glucosamine-6-phosphate [3]
  self-cleavage kobs at 2500 uM GlcN6P: < 1e-05 s⁻¹

## AUAAAAGCGCCAGAACUACAGAAAUGUAGUUGACGCGGAGGAGGUUUAACGAAUUUUCGGCGGAUGCCUUCAAA
glucosamine-6-phosphate [1]
  self-cleavage kobs at 160 uM GlcN6P: 4.96e-05 ± 2e-05 s⁻¹

## AUAAAAGCGCCAGAACUACAGAAAUGUAGUUGACGAGGCGGAGGUUUAUCGAAUUUUCGCCGGAUGCCUCCAAA
glucosamine-6-phosphate [1]
  self-cleavage kobs at 160 uM GlcN6P: < 1e-05 s⁻¹
glucosamine-6-phosphate [4]
  self-cleavage kobs at 10000 uM GlcN6P: < 1e-05 s⁻¹

## AUAAAAGCGCCAGAACUACAGAAAUGUAGUUGACGAGGAGGCGGUUUAUCGAAUUUUCGGUGGAUGCCUCCAAA
glucosamine-6-phosphate [1]
  self-cleavage kobs at 160 uM GlcN6P: < 1e-05 s⁻¹
glucosamine-6-phosphate [2]
  self-cleavage kobs at 640 uM GlcN6P: < 1e-05 s⁻¹
glucosamine-6-phosphate [3]
  self-cleavage kobs at 2500 uM GlcN6P: < 1e-05 s⁻¹

## AUAAAAGCGCCAGAACUACAGAAAUGUAGUUGACAAGGAGGAGGUUUAACGAAUUUUCGGCGGAUGGGUCCAAA
glucosamine-6-phosphate [1]
  self-cleavage kobs at 160 uM GlcN6P: 0.000246 ± 7.8e-05 s⁻¹
glucosamine-6-phosphate [2]
  self-cleavage kobs at 640 uM GlcN6P: 9.7e-05 ± 2.3e-05 s⁻¹
glucosamine-6-phosphate [3]
  self-cleavage kobs at 2500 uM GlcN6P: 0.000118 ± 3.7e-05 s⁻¹

## AUAAAAGCGCCAGAACUACAGAAAUGUAGUUGACGAGGAGGACGUUUAUCGAAUUUUCGGCGGAUGUCUCCAAA
glucosamine-6-phosphate [1]
  self-cleavage kobs at 160 uM GlcN6P: < 1e-05 s⁻¹
glucosamine-6-phosphate [3]
  self-cleavage kobs at 2500 uM GlcN6P: < 1e-05 s⁻¹

## AUAAAUGCGCCAGAACUACAGAAAUGUAGUUGACGAGGAGUAGGUUUAUCGAAUUUUCGGCGGAUGCAUCCAAA
glucosamine-6-phosphate [1]
  self-cleavage kobs at 160 uM GlcN6P: < 1e-05 s⁻¹
glucosamine-6-phosphate [3]
  self-cleavage kobs at 2500 uM GlcN6P: < 1e-05 s⁻¹

## AUAAAAGCGCCAAAACUACAGAAAUGUAGUUGACGAGGAGGAGGUUUAUCGAAUUUUAGGCGGAUGCCUCCAAA
glucosamine-6-phosphate [1]
  self-cleavage kobs at 160 uM GlcN6P: 5.76e-05 ± 2.1e-05 s⁻¹
glucosamine-6-phosphate [2]
  self-cleavage kobs at 640 uM GlcN6P: 0.000121 ± 2.5e-05 s⁻¹
glucosamine-6-phosphate [3]
  self-cleavage kobs at 2500 uM GlcN6P: 0.000307 ± 7.3e-05 s⁻¹

Reference: the supplement of paper PMC7125110
